Like-named read-outs stand apart in the source and are kept apart here.
Tests used:
Test in all cases: cell-based or functional assay
[1] = target: T1, SARS-COV-2 Spike, Omicron variant BA.2 (SARS-COV-2, UniProt P0DTC2 14-1273)
[2] = target: SARS-COV-2 Spike, Omicron variant BA.2.75 (SARS-COV-2, UniProt P0DTC2 14-1273)
[3] = target: T2, SARS-COV-2 Spike, Omicron variant BA.4/BA.5 (SARS-COV-2, UniProt P0DTC2 14-1273)
[4] = target: T3, SARS-COV-2 Spike, D614G (SARS-COV-2, UniProt P0DTC2 14-1273)
[5] = target: T4, SARS-COV-2 Spike, Omicron variant BA.1 (SARS-COV-2, UniProt P0DTC2 14-1273)
[6] = target: T1, SARS-COV-2 Spike, Omicron variant BA.2; remark: listed apart in the source
[7] = target: SARS-COV-2 Spike, Omicron variant BA.2.12.1 (SARS-COV-2, UniProt P0DTC2 14-1273)
[8] = target: T2, SARS-COV-2 Spike, Omicron variant …; remark: listed apart in the source
[9] = target: T3, SARS-COV-2 Spike, D614G; remark: listed apart in the source
[10] = target: T4, SARS-COV-2 Spike, Omicron variant BA.1; remark: listed apart in the source
[11] = target: T3, SARS-COV-2 Spike, D614G; remark: listed apart in the source

| Binder | Fold Change over R10933 + R10987 against D614G [1] [fold] | pseudovirus neutralization IC50 [1] [nM] | Fold Change over R10933 + R10987 against D614G [2] [fold] | pseudovirus neutralization IC50 [2] [nM] | Fold Change over R10933 + R10987 against D614G [3] [fold] | pseudovirus neutralization IC50 [3] [nM] | Fold Change over R10933 + R10987 against D614G [4] [fold] | pseudovirus neutralization IC50 [4] [nM] | Fold Change over R10933 + R10987 against D614G [5] [fold] | pseudovirus neutralization IC50 [5] [nM] | Fold change over R10987 against D614G [6] [fold] | pseudovirus neutralization IC50 [6] [nM] | Fold change over R10987 against D614G [7] [fold] | pseudovirus neutralization IC50 [7] [nM] | Fold change over R10987 against D614G [8] [fold] | pseudovirus neutralization IC50 [8] [nM] | other results |
| --- | --- | --- | --- | --- | --- | --- | --- | --- | --- | --- | --- | --- | --- | --- | --- | --- | --- |
| REGN14287 (antibody, V domains shown) VH: QVQLVQSGAEVKKPGSSVKVSCKASGGTFSNNAISWVRQAPGQGLEWMGKIIPILGIGGDAQKFQGRFTITADKSTSTAYMELSSLRSEDTAVYYCANSGDSRPHAFDIWGQGTMVTVSS VL: QSALTQPASVSGSPGQSITISCTGTSSDVGSYNLVSWYQQHPGKAPKLMIYEVSKRPSGVSNRFSGSKSGNTASLTISGLQAEDEADYYCSSYAGSRREVFGGGTKLTVL | 1.94 | 0.0284 | 3.94 | 0.0578 | 3.41 | 0.05 | 6.18 | 0.0906 | 3.28 | 0.0481 | – | – | – | – | – | – | – |
| REGN14315 (antibody, V domains shown) VH: QVQLVQSGAEVKKPGSSVKVSCKASGDTFSTYAINWVRQAPGQGLEWMGRFIHIFGTANYAQKFQGRVTITADESTSTAYMELRSLRSEDTAVYYCARDGVDYGDYRPDYWGQGTLVTVSS VL: EIVLTQSPGTLSLSPGERATLSCRASQSVSSNYLAWYQQKPGQAPRLLIYGASSRATGIPERFSGSGSGTDFTLTISRLEPEDFAVYYCQQYGSSLYTFGQGTKLEIK | 11.5 | 0.168 | 87 | 1.28 | 10.8 | 0.159 | 0.6 | 0.00878 | 2.76 | 0.0404 | 6.78 | 0.0359 | 12.7 | 0.0673 | 9.38 | 0.0497 | Fold change over R10987 against D614G [9]: 0.22 fold; pseudovirus neutralization IC50 [9]: 0.00115 nM; Fold change over R10987 against D614G [10]: 1.03 fold; pseudovirus neutralization IC50 [10]: 0.00547 nM |
| REGN14315 + REGN10987 (other) VH 1: QVQLVQSGAEVKKPGSSVKVSCKASGDTFSTYAINWVRQAPGQGLEWMGRFIHIFGTANYAQKFQGRVTITADESTSTAYMELRSLRSEDTAVYYCARDGVDYGDYRPDYWGQGTLVTVSS VL 1: EIVLTQSPGTLSLSPGERATLSCRASQSVSSNYLAWYQQKPGQAPRLLIYGASSRATGIPERFSGSGSGTDFTLTISRLEPEDFAVYYCQQYGSSLYTFGQGTKLEIK VH 2: QVQLVESGGGVVQPGRSLRLSCAASGFTFSNYAMYWVRQAPGKGLEWVAVISYDGSNKYYADSVKGRFTISRDNSKNTLYLQMNSLRTEDTAVYYCASGSDYGDYLLVYWGQGTLVTVSS VL 2: QSALTQPASVSGSPGQSITISCTGTSSDVGGYNYVSWYQQHPGKAPKLMIYDVSKRPSGVSNRFSGSKSGNTASLTISGLQSEDEADYYCNSLTSISTWVFGGGTKLTVL | – | – | – | – | – | – | – | – | – | – | 13.2 | 0.0699 | 21 | 0.111 | 20.7 | 0.11 | Fold change over R10987 against D614G [9]: 0.7 fold; pseudovirus neutralization IC50 [9]: 0.00368 nM; Fold change over R10987 against D614G [10]: 3.18 fold; pseudovirus neutralization IC50 [10]: 0.0169 nM |
| REGN14287 + REGN14315 (other) VH 1: QVQLVQSGAEVKKPGSSVKVSCKASGGTFSNNAISWVRQAPGQGLEWMGKIIPILGIGGDAQKFQGRFTITADKSTSTAYMELSSLRSEDTAVYYCANSGDSRPHAFDIWGQGTMVTVSS VL 1: QSALTQPASVSGSPGQSITISCTGTSSDVGSYNLVSWYQQHPGKAPKLMIYEVSKRPSGVSNRFSGSKSGNTASLTISGLQAEDEADYYCSSYAGSRREVFGGGTKLTVL VH 2: QVQLVQSGAEVKKPGSSVKVSCKASGDTFSTYAINWVRQAPGQGLEWMGRFIHIFGTANYAQKFQGRVTITADESTSTAYMELRSLRSEDTAVYYCARDGVDYGDYRPDYWGQGTLVTVSS VL 2: EIVLTQSPGTLSLSPGERATLSCRASQSVSSNYLAWYQQKPGQAPRLLIYGASSRATGIPERFSGSGSGTDFTLTISRLEPEDFAVYYCQQYGSSLYTFGQGTKLEIK | 9.75 | 0.143 | 20.5 | 0.3 | 14.9 | 0.219 | 0.76 | 0.0111 | 6.11 | 0.0896 | – | – | – | – | – | – | – |
| REGN10933 + REGN10987 (other) VH 1: QVQLVESGGGLVKPGGSLRLSCAASGFTFSDYYMSWIRQAPGKGLEWVSYITYSGSTIYYADSVKGRFTISRDNAKSSLYLQMNSLRAEDTAVYYCARDRGTTMVPFDYWGQGTLVTVSS VL 1: DIQMTQSPSSLSASVGDRVTITCQASQDITNYLNWYQQKPGKAPKLLIYAASNLETGVPSRFSGSGSGTDFTFTISGLQPEDIATYYCQQYDNLPLTFGGGTKVEIK VH 2: QVQLVESGGGVVQPGRSLRLSCAASGFTFSNYAMYWVRQAPGKGLEWVAVISYDGSNKYYADSVKGRFTISRDNSKNTLYLQMNSLRTEDTAVYYCASGSDYGDYLLVYWGQGTLVTVSS VL 2: QSALTQPASVSGSPGQSITISCTGTSSDVGGYNYVSWYQQHPGKAPKLMIYDVSKRPSGVSNRFSGSKSGNTASLTISGLQSEDEADYYCNSLTSISTWVFGGGTKLTVL | 326 | 4.77 | – | – | 230 | 3.37 | 1 | 0.0147 | – | – | – | – | – | – | – | – | pseudovirus neutralization IC50 [11]: 0.012 nM |
| REGN10933 (antibody, V domains shown) VH: QVQLVESGGGLVKPGGSLRLSCAASGFTFSDYYMSWIRQAPGKGLEWVSYITYSGSTIYYADSVKGRFTISRDNAKSSLYLQMNSLRAEDTAVYYCARDRGTTMVPFDYWGQGTLVTVSS VL: DIQMTQSPSSLSASVGDRVTITCQASQDITNYLNWYQQKPGKAPKLLIYAASNLETGVPSRFSGSGSGTDFTFTISGLQPEDIATYYCQQYDNLPLTFGGGTKVEIK | – | – | 148 | 2.17 | – | – | 1.98 | 0.0291 | – | – | – | – | – | – | – | – | – |
| REGN10987 (antibody, V domains shown) VH: QVQLVESGGGVVQPGRSLRLSCAASGFTFSNYAMYWVRQAPGKGLEWVAVISYDGSNKYYADSVKGRFTISRDNSKNTLYLQMNSLRTEDTAVYYCASGSDYGDYLLVYWGQGTLVTVSS VL: QSALTQPASVSGSPGQSITISCTGTSSDVGGYNYVSWYQQHPGKAPKLMIYDVSKRPSGVSNRFSGSKSGNTASLTISGLQSEDEADYYCNSLTSISTWVFGGGTKLTVL | 149 | 2.18 | – | – | 236 | 3.46 | 0.89 | 0.0131 | – | – | 199 | 1.06 | 279 | 1.48 | 176 | 0.933 | – |
| REGN14256 (antibody, V domains shown) VH: QVQLQESGPGLVKPSETLSLTCTVSGGSISSHYWSWIRQPPGKGLEWIGYIYYSGSSNYNPSLKSRVTISVDTSKNQFSLKLNSVTAADTAVYYCARHYDILTGFDWFDPWGQGTLVTVSS VL: QSVLTQPPSVSGAPGQRVTISCTGSSSNIGTHYDVHWYQQLPGTAPKLLIYGNSNRPSGVPDRFSGSKSGTSASLAITGLQAEDEADYYCQSFDNSLTAPYVFGTGTKVTVL | – | – | – | – | – | – | 0.77 | 0.0114 | – | – | – | – | – | – | – | – | – |

Source: patent US20240309072A1 (Regeneron, published 2024)
